Assay results as given in patent US20210079067A1 (US Dept. of Health and Human Services, published 2021).

B1: S1-4-A09 Fab (Fab, V domains shown)
VH: QVQLQESGPGLVKPSETLSLTCVVSGGILSSFYWNWIRQPPGKGLEWIGNIYYSGSPNYNASFQSRVAISVDTSKNQISLNLKSVTAADTAMYYCVRASRAYLWGSYRPTALDLWGQGSLVTVSS
VL: SYELTQPPSVSVSPGQTATITCSGDKLGDKYTSWFQQRPGQSPLLVIYQDNKRPSGLPARFSGSNSGNTATLTISGTQAMDEADYLCQVWDSGAVFGGGTKLTVL
B2: mAb100 (antibody, V domains shown)
VH: QVQLQESGPGLVKPSDTLSLTCTVSGGSLSSFYWSWIRQPPGKGLEWIGYIYYSGSPNYSPSLESRVTMSVDTTRNQISLKLDSVTAADTAVYYCVRASRSYYWGSYRPTAFDSWGQGTLVTVSS
VL: SYELTQPLSVSVSPGQTAIFTCSGDNLGDKYVCWFQQRPGQSPMLLIYQDNKRPSGIPERFSGSNSGNTATLTISGTQSTDEADYYCQTWDSTVVFGGGTKLTVL

Assays:
[1] = biological target: T1, mucin-domain-deleted Zaire ebolavirus GP (Zaire ebolavirus, UniProt Q05320 33-650); assay: biolayer interferometry, Fab, pH 5.3, 1:1 model; Fab, BLI, pH 5.3
[2] = biological target: T1, mucin-domain-deleted Zaire ebolavirus GP; assay: pH 7.4
[3] = biological target: T1, mucin-domain-deleted Zaire ebolavirus GP; assay: biolayer interferometry, Fab, pH 7.4, 1:1 model; Fab, BLI, pH 7.4
[4] = biological target: T1, mucin-domain-deleted Zaire ebolavirus GP; assay: pH 5.3
[5] = biological target: T1, mucin-domain-deleted Zaire ebolavirus GP; assay: biolayer interferometry, mAb, pH 7.4, 1:2 bivalent model
[6] = biological target: T1, mucin-domain-deleted Zaire ebolavirus GP
[7] = biological target: T1, mucin-domain-deleted Zaire ebolavirus GP; assay: biolayer interferometry, mAb, pH 7.4, 1:2 bivalent model (apparent)

Binder	Kd [1]	koff [2]	kon [2]	Kd [3]	koff [4]	kon [4]	koff [5]	kon [5]	EC50 (read off the curve) [6]	Kd [7]
B1	2.1 nM	0.000136 s⁻¹	131000 M⁻¹ s⁻¹	1.04 nM	0.000179 s⁻¹	85200 M⁻¹ s⁻¹				
B2							8.91e-06 s⁻¹	143000 M⁻¹ s⁻¹	~0.01 µg/mL	0.0628 nM
